# Results published in publication PMC12653191 (Journal of Fungi, 2025).
# T1: Candida glabrata Pbn1 (C. glabrata ATCC 2001, UniProt Q6FX62 1-416, N-glycosylation at N35, N319 and N365)
# T1 construct: Pbn1, auxiliary subunit of GPI mannosyltransferase I, Candida glabrata ATCC 2001, UniProt Q6FX62, full length (416 amino acids); residues 2-408 are modelled in the structure; also called auxiliary subunit of GPI-MT-I; source: S. cerevisiae INVSc1, co-expressed with Gpi14, purified (Strep-Tactin, SEC); not shown: Twin-Strep II, N-terminal, kept
# T1 sequence (looked up): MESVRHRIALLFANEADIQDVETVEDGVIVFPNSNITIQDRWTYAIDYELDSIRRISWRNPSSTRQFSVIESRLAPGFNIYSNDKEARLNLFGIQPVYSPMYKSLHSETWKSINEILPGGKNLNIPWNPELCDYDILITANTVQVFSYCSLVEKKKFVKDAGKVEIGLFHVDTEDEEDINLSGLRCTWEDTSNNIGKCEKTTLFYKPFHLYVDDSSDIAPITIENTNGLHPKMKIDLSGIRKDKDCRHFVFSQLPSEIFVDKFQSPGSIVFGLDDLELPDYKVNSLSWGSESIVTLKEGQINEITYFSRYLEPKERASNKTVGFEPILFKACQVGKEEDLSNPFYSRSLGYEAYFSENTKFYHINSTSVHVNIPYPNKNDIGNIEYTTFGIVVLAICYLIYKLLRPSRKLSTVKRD
# B1: Candida glabrata Gpi14 (enzyme, C. glabrata ATCC 2001, UniProt Q6FXQ5 1-431, looked up)
# chain: MFKLGTIGLLSLAVLLRIAFFLFGVYQDEHFTVKYTDIDYQVFNDAAWFVAHRKSPYNRDTYRYTPLLSWLLLPNHMIPWFHFGKLIFVLCDLATGVLILQMLKKLKSKYRYGTDRMTIMAAIWLLNPMVITISTRGNAESVLCFLILSFLYCFLCEQYLLGGLLFGLSIHFKIYPIIYALPIAIYVAAAHYNKTQSVFKSSFKLFLVGFSTLIVLILLTVFMYMLYGDKFIDQTYLYHIYRTDHRHNFSVWNMLLYFNSALPKTSELSKFVFLPQMIIVLAISLTQLRRPSSFPLLCNVLFLETFAFVTFNKVCTSQYFIWYLIFLPFVLYNTRISMRRGIVMLVVWVATQALWLRQGYLLEFEGQNVFYPGLFCASVGFFVSNAWILGQFIEDTIIQNDYVYRIEPSESRSKDSAVIDKPAIAKTEKAE
# notes: Gpi14, GPI mannosyltransferase I catalytic subunit, Candida glabrata ATCC 2001, UniProt Q6FXQ5, full length (431 amino acids); residues 2-408 are modelled in the structure; also called catalytic subunit of GPI-MT-I; source: S. cerevisiae INVSc1, co-expressed with Pbn1, purified (Strep-Tactin via Pbn1, SEC)
# Target: T1, Candida glabrata Pbn1
# Assay: cryo-EM structure; Gpi14-Pbn1 complex co-expressed in S. cerevisiae, purified by Strep-Tactin on Pbn1 and SEC in 20 mM Hepes pH 7.4, 150 mM NaCl, 0.02% GDN; ~22 mg/mL; endogenous Dol-P-Man bound
# Conditions: both partners purified
binder,measurement,value
B1,stoichiometry N,1
